Laboratory results published in the supplement of paper PMC10567573.

B1: SLC35F2 (parent)
chain: QYLAERYKVNTPMLQSFINYCLLF

Variants of: B1
Assay: protein stability index of a GFP-peptide fusion (GPS, HEK-293T) (PSI 1-6); higher = more stable
Conditions: c terminus: a fixed tail appended
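Note: lentivirally expressed fusions sorted by FACS into six bins by GFP to DsRed ratio, PSI derived from sequencing read proportions per bin multiplied by bin number.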

Protein stability index: each site, then its substitutions
Y20: Q 2.56; V 2.78; G 2.35; E 2.09; N 2.41; T 2.27; W 2.03; F 3.1; R 2.47; S 2.3; M 2.09; H 2.97; A 3.18; C 2.64; K 2.5; I 2.62; P 2.17; L 2.94; D 1.81
C21: L 2.52; F 1.99; I 2.06; K 3.46; D 2.36; E 1.65; H 2.29; G 2.33; A 3.53
L14: S 1.87; A 2.37; Y 3.03; G 2.08; C 2.03; E 2.45; V 2.31; W 2.4; M 3.31; I 2.73; R 2.66; N 2.12; P 2.12; T 2.65; Q 3.39; H 2.11; D 2.82; F 1.69; K 2.38
M13: G 2.2; N 3.77; C 3.76; R 2.64; V 3.22; D 2.2; F 2.34; Y 2.4; K 2.04; H 2.59; I 2.52; L 1.83; S 2.93; T 2.74; A 3.48; E 2.99; P 2.69; Q 2.02; W 1.9
N19: T 2.51; D 2.49; R 2.35; G 2.7; E 2.22; M 2.08; F 2.49; I 1.48; P 2.7; V 2.75; K 2.56; Q 3.31; Y 2.31; H 2.18; A 3.55; W 2.94; L 1.71; S 2.38
N10: L 3.17; M 2.96; I 2.88; R 1.85; V 2.92; A 2.09; D 2.83; K 2.14; Y 2.75; H 2.71; Q 1.87; P 1.68; W 2.29; T 2.51; G 2.54; E 2.2; S 2.36; C 2.2; F 2.88
E5: W 2.54; S 2.14; G 2.03; H 3.1; C 3.78; D 2.88; P 2.34; Q 2.72; Y 2.14; N 2.62; I 3.06; L 2.72; K 1.96; T 2.14; V 4.14; M 4.24; F 3.74; R 3.95; A 3.18
V9: Y 2.06; W 1.98; G 2.3; M 2.54; L 2.6; R 1.86; N 2.23; C 2.68; S 2.58; A 1.65; P 2.24; Q 2.87; F 3.49; D 1.8; I 2.51; K 2.37; H 2.48; E 2.65; T 2.4
A4: Y 2.38; C 3.16; K 3.59; E 2.76; I 2.65; T 3.02; F 1.83; L 3.42; S 3.11; W 2.53; G 3.01; N 3.76; P 2.88; D 2.26; R 2.53; Q 2.56; V 3.22; H 1.99; M 3.1
L3: V 2.34; Q 2.94; S 2.5; Y 2.34; N 2.71; P 3.5; R 2.98; T 2.7
S16: D 3; I 3; P 3.19; K 2.76; T 1.72; R 2.63; Q 1.65; V 3.01; L 3.45; E 2.19; G 2.22; N 2.36; W 1.87; C 2.44; Y 1.79; H 1.83; A 2.43; F 2.11
Y7: N 2.89; E 2.03; F 2.18; S 2.48; Q 3.26; W 1.84; L 2.35; R 1.55; K 2.53; A 3.17; M 1.62; T 2.19; I 2.21; V 2.92; C 3.12; P 2.98; G 3.27; D 2.49; H 2.95
F17: S 3.47; T 2.45; I 3; Q 2.34; V 3.29; G 2.45; E 2.3; R 3.78; M 3.02; D 1.82; P 1.8; A 1.76; W 1.6; Y 2.14; C 3.45; N 2.12; K 2.65; H 3.26
K8: N 2.22; S 3.15; F 3.46; D 2.44; H 2.64; Q 2.13; V 2.61; E 2.04; G 2.38; L 2.87; C 3.39; Y 3.27; W 2.55; A 2.54; P 2.35; M 2.75; R 1.63; T 2.43
I18: Y 2.15; L 2.96; A 1.93; H 2.9; W 2.53; C 3.62; G 1.92; N 2.1; D 3.29; V 1.34; Q 2.48; T 2.82; E 2.75; R 3.24; S 2.34; K 1.99; F 1.98; M 2.56; P 3.3
Q15: H 2.23; I 1.67; D 3.24; P 3.78; T 3.41; Y 3.21; V 2.86; M 2.15; L 3.28; E 3.23; S 3.63; N 2.61; R 2.29; F 3.17; G 3.36; W 2.83; K 1.28; C 2.95; A 2.71
R6: T 2.97; Y 1.16; P 3.62; N 3.2; V 2.92; W 2.51; I 2.56; S 2.94; Q 2.34; E 2.72; M 2.25; G 2; D 1.99; C 2.86; H 3.38; K 2.42; A 2.7; L 2.11
P12: Q 1.7; H 3.1; K 1.74; N 2.72; F 3.15; I 3.44; L 3.97; C 3.04; D 3.1; W 1.29; G 2.73; E 2.52; M 3.68; A 4.77; R 3.12; Y 3.33; T 2.54; S 2.35
T11: N 2.71; L 2.89; V 2.5; P 1.8; F 2.04; D 2.63; A 2.13; H 2.19; G 2.28; C 3.08; I 2.6; Q 2.96; S 2.65; M 2.69; Y 3.51; W 2.12; K 2.21; R 2.57; E 2.27
